Laboratory results reported in article PMC9482650, “Quantitative fragmentomics allow affinity mapping of interactomes” (Nature Communications, 2022).

Columns and labels:
Assay in all cases: holdup assay
Design in all cases: key: below the threshold = too weak to quantify, mostly under pKd 3.1 to 4
Conditions in all cases: plain residues with an end cap or a label only (N-terminal biotin on a linker: ado-ado)
MAGI2_5, Q86UL8 = target: MAGI2_5, Q86UL8
Inadl_8, Q8NI35 = target: Inadl_8, Q8NI35
GRID2IP_2, A4D2P6 = target: GRID2IP_2, A4D2P6
GRIP2_6, Q9C0E4 = target: GRIP2_6, Q9C0E4
TJP2_1, Q9UDY2 = target: TJP2_1, Q9UDY2
DFNB31_2, Q9P202 = target: T1, DFNB31_2, Q9P202
T1 sequence (Q9P202 274-371, limits assumed, looked up): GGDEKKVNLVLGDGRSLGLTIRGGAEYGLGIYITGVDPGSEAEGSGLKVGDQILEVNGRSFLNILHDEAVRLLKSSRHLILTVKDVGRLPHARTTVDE

GORASP1, Q9BQQ3 = target: GORASP1, Q9BQQ3
MAST2, Q6P0Q8 = target: MAST2, Q6P0Q8
Inadl_2, Q8NI35 = target: Inadl_2, Q8NI35
PDZD2_2, O15018 = target: T2, PDZD2_2, O15018
T2 sequence (O15018 329-429, limits assumed, looked up): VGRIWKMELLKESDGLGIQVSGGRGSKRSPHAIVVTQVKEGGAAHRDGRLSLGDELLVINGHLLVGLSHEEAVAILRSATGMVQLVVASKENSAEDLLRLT

SNX27, Q96L92 = target: SNX27, Q96L92
PCLO, Q9Y6V0 = target: T3, PCLO, Q9Y6V0
T3 sequence (Q9Y6V0 4491-4600, limits assumed, looked up): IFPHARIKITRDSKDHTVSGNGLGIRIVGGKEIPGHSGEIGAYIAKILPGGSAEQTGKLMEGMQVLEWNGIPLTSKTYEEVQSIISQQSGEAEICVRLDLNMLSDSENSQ

ARHGEF11, O15085 = target: T4, ARHGEF11, O15085
T4 sequence (O15085 42-136, limits assumed, looked up): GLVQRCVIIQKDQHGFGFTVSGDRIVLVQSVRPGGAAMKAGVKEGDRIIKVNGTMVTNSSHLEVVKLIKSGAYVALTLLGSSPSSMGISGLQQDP

LIMK2, P53671 = target: LIMK2, P53671
Inadl_6, Q8NI35 = target: Inadl_6, Q8NI35
Inadl_3, Q8NI35 = target: Inadl_3, Q8NI35
RAPGEF6, Q8TEU7 = target: T5, RAPGEF6, Q8TEU7
T5 sequence (Q8TEU7 525-625, limits assumed, looked up): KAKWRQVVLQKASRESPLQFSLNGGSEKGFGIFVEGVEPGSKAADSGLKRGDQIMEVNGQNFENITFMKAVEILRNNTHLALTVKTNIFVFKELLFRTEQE

GRIP1_5, Q9Y3R0 = target: T6, GRIP1_5, Q9Y3R0
T6 sequence (Q9Y3R0 568-668, limits assumed, looked up): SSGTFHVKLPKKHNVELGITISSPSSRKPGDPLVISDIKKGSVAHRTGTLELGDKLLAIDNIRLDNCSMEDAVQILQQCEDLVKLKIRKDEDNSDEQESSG

GRIP1_3, Q9Y3R0 = target: T7, GRIP1_3, Q9Y3R0
T7 sequence (Q9Y3R0 247-346, limits assumed, looked up): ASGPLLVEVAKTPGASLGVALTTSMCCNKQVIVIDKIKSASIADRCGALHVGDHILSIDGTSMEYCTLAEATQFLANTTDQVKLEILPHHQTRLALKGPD

MPP6, Q9NZW5 = target: T8, MPP6, Q9NZW5
T8 sequence (Q9NZW5 125-219, limits assumed, looked up): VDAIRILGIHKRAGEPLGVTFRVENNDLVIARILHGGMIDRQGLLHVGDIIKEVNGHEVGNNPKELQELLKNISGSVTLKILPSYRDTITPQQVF

GRIP2_7, Q9C0E4 = target: GRIP2_7, Q9C0E4
MAGI1_2, Q96QZ7 = target: MAGI1_2, Q96QZ7
PDZRN4_1, Q6ZMN7 = target: PDZRN4_1, Q6ZMN7
GIPC2, Q8TF65 = target: GIPC2, Q8TF65
Inadl_10, Q8NI35 = target: Inadl_10, Q8NI35
GRIP1_2, Q9Y3R0 = target: T9, GRIP1_2, Q9Y3R0
T9 sequence (Q9Y3R0 145-248, limits assumed, looked up): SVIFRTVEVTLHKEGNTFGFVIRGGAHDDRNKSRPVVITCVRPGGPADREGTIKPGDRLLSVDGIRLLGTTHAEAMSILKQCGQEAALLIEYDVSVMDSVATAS

AHNAK1, Q09666 = target: AHNAK1, Q09666
GRIP1_7, Q9Y3R0 = target: T10, GRIP1_7, Q9Y3R0
T10 sequence (Q9Y3R0 999-1096, limits assumed, looked up): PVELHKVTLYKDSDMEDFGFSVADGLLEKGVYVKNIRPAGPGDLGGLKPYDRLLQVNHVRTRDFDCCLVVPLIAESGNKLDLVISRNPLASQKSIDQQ

MAGI1_2, Q96QZ7, sequence (Q96QZ7 456-580): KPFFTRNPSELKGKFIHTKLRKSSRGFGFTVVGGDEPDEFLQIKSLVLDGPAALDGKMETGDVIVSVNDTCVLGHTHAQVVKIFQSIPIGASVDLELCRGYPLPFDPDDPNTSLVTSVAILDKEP
MAST2, Q6P0Q8, sequence (Q6P0Q8 1099-1202): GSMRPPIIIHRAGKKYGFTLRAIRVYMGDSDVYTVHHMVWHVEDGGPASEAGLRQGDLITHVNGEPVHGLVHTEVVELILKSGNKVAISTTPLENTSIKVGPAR
GRID2IP_2, A4D2P6, sequence (A4D2P6 272-370): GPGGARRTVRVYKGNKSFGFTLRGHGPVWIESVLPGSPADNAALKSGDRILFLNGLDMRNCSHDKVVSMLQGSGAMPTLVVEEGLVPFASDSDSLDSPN
TJP2_1, Q9UDY2, sequence (Q9UDY2 24-128): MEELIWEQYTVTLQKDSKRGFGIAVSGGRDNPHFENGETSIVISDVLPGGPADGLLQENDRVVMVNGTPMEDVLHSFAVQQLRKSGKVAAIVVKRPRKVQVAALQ
Inadl_6, Q8NI35, sequence (Q8NI35 1058-1167): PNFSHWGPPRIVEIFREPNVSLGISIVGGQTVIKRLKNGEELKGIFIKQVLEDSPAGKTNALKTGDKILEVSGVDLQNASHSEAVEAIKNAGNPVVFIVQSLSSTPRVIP
Inadl_2, Q8NI35, sequence (Q8NI35 238-335): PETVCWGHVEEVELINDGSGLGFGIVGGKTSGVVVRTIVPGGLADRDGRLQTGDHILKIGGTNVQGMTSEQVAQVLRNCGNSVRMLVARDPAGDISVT
GIPC2, Q8TF65, sequence (Q8TF65 112-203): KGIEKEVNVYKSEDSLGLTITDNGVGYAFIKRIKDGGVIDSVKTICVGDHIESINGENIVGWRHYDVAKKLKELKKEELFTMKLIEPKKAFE
LIMK2, P53671, sequence (P53671 143-248): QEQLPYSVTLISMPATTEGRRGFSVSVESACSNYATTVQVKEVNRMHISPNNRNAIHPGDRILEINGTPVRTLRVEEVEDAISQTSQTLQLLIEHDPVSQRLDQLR
GRIP2_7, Q9C0E4, sequence (Q9C0E4 934-1023): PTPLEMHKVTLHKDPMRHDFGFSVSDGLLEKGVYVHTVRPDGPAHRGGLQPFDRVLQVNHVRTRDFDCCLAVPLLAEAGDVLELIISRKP
AHNAK1, Q09666, sequence (Q09666 4-100): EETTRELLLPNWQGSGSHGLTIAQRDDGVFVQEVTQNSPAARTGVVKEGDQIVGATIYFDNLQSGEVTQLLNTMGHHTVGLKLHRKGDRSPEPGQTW
Inadl_10, Q8NI35, sequence (Q8NI35 1673-1763): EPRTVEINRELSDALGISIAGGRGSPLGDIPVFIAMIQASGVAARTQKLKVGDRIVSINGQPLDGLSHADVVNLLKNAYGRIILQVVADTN
PDZRN4_1, Q6ZMN7, sequence (Q6ZMN7 213-318): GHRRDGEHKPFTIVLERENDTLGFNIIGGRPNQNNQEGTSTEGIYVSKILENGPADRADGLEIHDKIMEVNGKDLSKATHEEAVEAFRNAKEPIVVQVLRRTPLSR
MAGI2_5, Q86UL8, sequence (Q86UL8 915-1017): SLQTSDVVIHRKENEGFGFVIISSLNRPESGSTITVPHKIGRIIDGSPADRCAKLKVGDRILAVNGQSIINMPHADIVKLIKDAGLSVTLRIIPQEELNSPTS
Inadl_3, Q8NI35, sequence (Q8NI35 359-469): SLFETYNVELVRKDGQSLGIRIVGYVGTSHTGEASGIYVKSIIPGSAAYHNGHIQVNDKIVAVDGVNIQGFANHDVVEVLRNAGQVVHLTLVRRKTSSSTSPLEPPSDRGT
GRIP2_6, Q9C0E4, sequence (Q9C0E4 648-740): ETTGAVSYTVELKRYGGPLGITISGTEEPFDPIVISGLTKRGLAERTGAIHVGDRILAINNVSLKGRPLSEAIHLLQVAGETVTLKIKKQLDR
Inadl_8, Q8NI35, sequence (Q8NI35 1425-1530): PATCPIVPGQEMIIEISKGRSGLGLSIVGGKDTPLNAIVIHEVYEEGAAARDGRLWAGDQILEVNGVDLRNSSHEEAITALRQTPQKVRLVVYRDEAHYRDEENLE
GORASP1, Q9BQQ3, sequence (Q9BQQ3 1-208): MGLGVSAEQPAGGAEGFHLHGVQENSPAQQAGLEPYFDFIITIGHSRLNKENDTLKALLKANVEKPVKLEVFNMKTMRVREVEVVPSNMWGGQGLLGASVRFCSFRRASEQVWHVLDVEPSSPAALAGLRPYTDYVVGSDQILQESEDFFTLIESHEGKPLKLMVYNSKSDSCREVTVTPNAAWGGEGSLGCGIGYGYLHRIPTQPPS

B1: GOLT1A, Q6ZVE7 (peptide)
chain: RRLQGTSSMV
MAGI2_5, Q86UL8
  pKd: 4
Inadl_8, Q8NI35
  pKd: 4.08
GRID2IP_2, A4D2P6
  pKd: 3.93
GRIP2_6, Q9C0E4
  pKd: below the threshold
TJP2_1, Q9UDY2
  pKd: 3.59
DFNB31_2, Q9P202
  pKd: below the threshold
GORASP1, Q9BQQ3
  pKd: 3.67
MAST2, Q6P0Q8
  pKd: 4.72
Inadl_2, Q8NI35
  pKd: below the threshold
PDZD2_2, O15018
  pKd: 5.16
SNX27, Q96L92
  pKd: below the threshold
PCLO, Q9Y6V0
  pKd: below the threshold
ARHGEF11, O15085
  pKd: below the threshold
LIMK2, P53671
  pKd: below the threshold
Inadl_6, Q8NI35
  pKd: below the threshold
Inadl_3, Q8NI35
  pKd: below the threshold
RAPGEF6, Q8TEU7
  pKd: below the threshold
GRIP1_5, Q9Y3R0
  pKd: below the threshold
GRIP1_3, Q9Y3R0
  pKd: below the threshold
MPP6, Q9NZW5
  pKd: below the threshold
GRIP2_7, Q9C0E4
  pKd: below the threshold
MAGI1_2, Q96QZ7
  pKd: 4.04
PDZRN4_1, Q6ZMN7
  pKd: below the threshold
GIPC2, Q8TF65
  pKd: below the threshold
Inadl_10, Q8NI35
  pKd: below the threshold
GRIP1_2, Q9Y3R0
  pKd: below the threshold
AHNAK1, Q09666
  pKd: below the threshold
GRIP1_7, Q9Y3R0
  pKd: below the threshold

B2: YAP1, P46937 (peptide)
chain: LDKESFLTWL
MAGI2_5, Q86UL8
  pKd: 4.18
Inadl_8, Q8NI35
  pKd: 3.48
GRID2IP_2, A4D2P6
  pKd: 4.52
GRIP2_6, Q9C0E4
  pKd: below the threshold
TJP2_1, Q9UDY2
  pKd: 5.19
DFNB31_2, Q9P202
  pKd: below the threshold
GORASP1, Q9BQQ3
  pKd: 5.11
MAST2, Q6P0Q8
  pKd: 5.6
Inadl_2, Q8NI35
  pKd: 3.91
PDZD2_2, O15018
  pKd: 5.88
SNX27, Q96L92
  pKd: 5.11
PCLO, Q9Y6V0
  pKd: 3.57
ARHGEF11, O15085
  pKd: 5.32
LIMK2, P53671
  pKd: below the threshold
Inadl_6, Q8NI35
  pKd: 5.66
Inadl_3, Q8NI35
  pKd: 4.38
RAPGEF6, Q8TEU7
  pKd: below the threshold
GRIP1_5, Q9Y3R0
  pKd: below the threshold
GRIP1_3, Q9Y3R0
  pKd: below the threshold
MPP6, Q9NZW5
  pKd: below the threshold
GRIP2_7, Q9C0E4
  pKd: 4.05
MAGI1_2, Q96QZ7
  pKd: 3.49
PDZRN4_1, Q6ZMN7
  pKd: 4.1
GIPC2, Q8TF65
  pKd: below the threshold
Inadl_10, Q8NI35
  pKd: 5.45
GRIP1_2, Q9Y3R0
  pKd: 3.51
AHNAK1, Q09666
  pKd: below the threshold
GRIP1_7, Q9Y3R0
  pKd: below the threshold

B3: ADGRA1, Q86SQ6 (peptide)
chain: TGPWKNETTV
MAGI2_5, Q86UL8
  pKd: 4.02
Inadl_8, Q8NI35
  pKd: below the threshold
GRID2IP_2, A4D2P6
  pKd: below the threshold
GRIP2_6, Q9C0E4
  pKd: below the threshold
TJP2_1, Q9UDY2
  pKd: below the threshold
DFNB31_2, Q9P202
  pKd: below the threshold
GORASP1, Q9BQQ3
  pKd: below the threshold
MAST2, Q6P0Q8
  pKd: 5.31
Inadl_2, Q8NI35
  pKd: below the threshold
PDZD2_2, O15018
  pKd: 4.02
SNX27, Q96L92
  pKd: 5.43
PCLO, Q9Y6V0
  pKd: below the threshold
ARHGEF11, O15085
  pKd: 4.09
LIMK2, P53671
  pKd: below the threshold
Inadl_6, Q8NI35
  pKd: below the threshold
Inadl_3, Q8NI35
  pKd: below the threshold
RAPGEF6, Q8TEU7
  pKd: below the threshold
GRIP1_5, Q9Y3R0
  pKd: below the threshold
GRIP1_3, Q9Y3R0
  pKd: below the threshold
MPP6, Q9NZW5
  pKd: below the threshold
GRIP2_7, Q9C0E4
  pKd: below the threshold
MAGI1_2, Q96QZ7
  pKd: 4.67
PDZRN4_1, Q6ZMN7
  pKd: 4.31
GIPC2, Q8TF65
  pKd: 4.24
Inadl_10, Q8NI35
  pKd: below the threshold
GRIP1_2, Q9Y3R0
  pKd: below the threshold
AHNAK1, Q09666
  pKd: below the threshold
GRIP1_7, Q9Y3R0
  pKd: below the threshold

B4: PKN2, Q16513 (peptide)
chain: RDFDYIADWC
MAGI2_5, Q86UL8
  pKd: 3.95
Inadl_8, Q8NI35
  pKd: 4.55
GRID2IP_2, A4D2P6
  pKd: below the threshold
GRIP2_6, Q9C0E4
  pKd: below the threshold
TJP2_1, Q9UDY2
  pKd: 4.48
DFNB31_2, Q9P202
  pKd: below the threshold
GORASP1, Q9BQQ3
  pKd: below the threshold
MAST2, Q6P0Q8
  pKd: 3.64
Inadl_2, Q8NI35
  pKd: below the threshold
PDZD2_2, O15018
  pKd: 5.54
SNX27, Q96L92
  pKd: 4.32
PCLO, Q9Y6V0
  pKd: below the threshold
ARHGEF11, O15085
  pKd: 3.68
LIMK2, P53671
  pKd: below the threshold
Inadl_6, Q8NI35
  pKd: 3.56
Inadl_3, Q8NI35
  pKd: 3.6
RAPGEF6, Q8TEU7
  pKd: below the threshold
GRIP1_5, Q9Y3R0
  pKd: below the threshold
GRIP1_3, Q9Y3R0
  pKd: below the threshold
MPP6, Q9NZW5
  pKd: below the threshold
GRIP2_7, Q9C0E4
  pKd: below the threshold
MAGI1_2, Q96QZ7
  pKd: below the threshold
PDZRN4_1, Q6ZMN7
  pKd: below the threshold
GIPC2, Q8TF65
  pKd: below the threshold
Inadl_10, Q8NI35
  pKd: below the threshold
GRIP1_2, Q9Y3R0
  pKd: 3.7
AHNAK1, Q09666
  pKd: below the threshold
GRIP1_7, Q9Y3R0
  pKd: below the threshold

B5: SCN4A, P35499 (peptide)
chain: VRPGVKESLV
MAGI2_5, Q86UL8
  pKd: 5.03
Inadl_8, Q8NI35
  pKd: 4.15
GRID2IP_2, A4D2P6
  pKd: 3.64
GRIP2_6, Q9C0E4
  pKd: below the threshold
TJP2_1, Q9UDY2
  pKd: below the threshold
DFNB31_2, Q9P202
  pKd: 3.95
GORASP1, Q9BQQ3
  pKd: below the threshold
MAST2, Q6P0Q8
  pKd: 4.87
Inadl_2, Q8NI35
  pKd: below the threshold
PDZD2_2, O15018
  pKd: 5.17
SNX27, Q96L92
  pKd: 5.28
PCLO, Q9Y6V0
  pKd: below the threshold
ARHGEF11, O15085
  pKd: below the threshold
LIMK2, P53671
  pKd: below the threshold
Inadl_6, Q8NI35
  pKd: 3.54
Inadl_3, Q8NI35
  pKd: below the threshold
RAPGEF6, Q8TEU7
  pKd: below the threshold
GRIP1_5, Q9Y3R0
  pKd: below the threshold
GRIP1_3, Q9Y3R0
  pKd: below the threshold
MPP6, Q9NZW5
  pKd: 3.67
GRIP2_7, Q9C0E4
  pKd: below the threshold
MAGI1_2, Q96QZ7
  pKd: 4.6
PDZRN4_1, Q6ZMN7
  pKd: 4.25
GIPC2, Q8TF65
  pKd: below the threshold
Inadl_10, Q8NI35
  pKd: below the threshold
GRIP1_2, Q9Y3R0
  pKd: below the threshold
AHNAK1, Q09666
  pKd: below the threshold
GRIP1_7, Q9Y3R0
  pKd: below the threshold
